US20250302875A1 (AVENCELL EUROPE, published 2025)
Numbering of substitutions follows the chain as printed. Numbers in names are those of the source.

B1: TM-mu33A1-scFv (scFv)
scFv: EFQVQLQQPGAELVKPGASVKLSCKASGYTFTSHWIHWVKERPGRGLEWIGRIEPNSGGTLYNEKFKTKATLTVDKPSSTAYMQINSLTSEDFAVYYCARWREFDFFDYWGQGTTLTVSSGGGGSGGGGSGGGGSDIVLTQSPATLSVTPGDSVSLSCRASQSISNNLHWYQQKSHESPRLLIKYASQSISGIPSRFSGSGSGTDFTLSISSVETEDFGMYFCQQSNRWPYTFGGGTKLEIKAAAKPLPEVTDEYARGGPGGGGSHHHHHHHH
notes: also called TM based on the parental murine clone 33A1; mu33A1-based TM
B2: TM-IL13-E11Y-G30Y (ligand, not shown: small tags and cut ends)
chain (part 1 of 2): GPVPPSTALRYLIEELVNITQNQKAPLCNYSMVWSINLTAGMYCAALESLINVSGCSAIEKTQRMLSGFCPHKVSAGQFSSLHVRDTKIEVAQFVKDLLLHLKKLFREGRFN
chain (part 2 of 2): KPLPEVTDEYHHHHHHHH
B3: TM-IL13-E11Y-M32A (ligand, not shown: small tags and cut ends)
chain (part 1 of 2): B2 chain (part 1 of 2) with Y30G, M32A
chain (part 2 of 2): KPLPEVTDEYHHHHHHHH

Assays:
[1] = biological target: T1, soluble recombinant IL13Rα2 ectodomain (human, UniProt Q14627 27-343); assay: SPR, Biacore X100, two-state reaction model, Kd1
T1 construct: extracellular domain
T1 sequence (looked up): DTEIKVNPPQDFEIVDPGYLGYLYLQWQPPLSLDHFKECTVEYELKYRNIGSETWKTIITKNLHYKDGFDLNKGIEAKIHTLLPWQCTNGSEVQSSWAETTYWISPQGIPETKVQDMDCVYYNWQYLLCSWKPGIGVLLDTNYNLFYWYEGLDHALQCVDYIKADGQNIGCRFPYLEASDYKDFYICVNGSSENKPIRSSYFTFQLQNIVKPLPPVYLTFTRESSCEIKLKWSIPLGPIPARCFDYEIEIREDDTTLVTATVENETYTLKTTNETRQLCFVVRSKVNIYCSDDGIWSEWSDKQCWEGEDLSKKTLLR
Method: (§1) Data obtained by surface plasmon resonance were fitted with a “two-state reaction” model using the Biacore X100 Evaluation Software (V2.0.1). The following parameters were calculated from this model: association rate (kₐ), dissociation rate (kd) and the dissociation constant at equilibrium (KD).

[2] = biological target: T2, IL13Rα1 on recombinant K562-IL13Rα1 cell line (UniProt P78552 22-427); assay: flow cytometry cellular binding assay on recombinant K562-IL13Rα1 cells, two-step immunostaining, MFI against TM concentration
T2 construct: whole, on cells
T2 sequence (looked up): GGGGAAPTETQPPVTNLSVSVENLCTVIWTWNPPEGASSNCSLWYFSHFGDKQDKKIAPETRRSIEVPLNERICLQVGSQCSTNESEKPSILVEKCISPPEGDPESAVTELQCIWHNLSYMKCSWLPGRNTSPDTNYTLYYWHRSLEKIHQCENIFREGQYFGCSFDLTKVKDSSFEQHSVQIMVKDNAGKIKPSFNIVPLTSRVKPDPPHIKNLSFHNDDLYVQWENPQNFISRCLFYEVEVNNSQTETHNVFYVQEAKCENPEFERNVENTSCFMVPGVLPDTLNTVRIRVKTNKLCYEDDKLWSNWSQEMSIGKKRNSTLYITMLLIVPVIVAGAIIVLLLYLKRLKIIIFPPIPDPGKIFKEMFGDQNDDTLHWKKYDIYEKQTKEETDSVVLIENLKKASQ
Method: (§2) Cellular binding of IL13-based targeting modules (TM) was tested on recombinant K562-IL13Rα2 cell line (FIG. 2A), recombinant K562-IL13Rα1 cell line (FIG. 2B) and U251-MG cells (FIG. 2C) (derived from a malignant glioblastoma tumor by explant technique). The affinity of TMs was analyzed by FACS in a two-step immunostaining. The TMs were titrated on an AML cell line with recombinant overexpression of IL13Rα2 or IL13Rα1 or U251-MG cells, respectively, and then detected by a mouse anti-His-tag antibody conjugated to phycoerythrin. A dose-response curve was obtained when the geometric mean fluorescence (MFI) was plotted against the TM concentration.
(§3) The data were fitted using a four-parameter model with a variable slope for sigmoidal curves. The EC50 value obtained from this model can be interpreted as a representative value of the TM affinity for the cells overexpressing the target receptor.

[3] = biological target: T3, IL13Rα2 on cells (recombinant K562-IL13Rα2 cell line, U251-MG cells, PC3 cells) (human, UniProt Q14627 27-380); assay: flow cytometry, two-step immunostaining, K562-IL13Rα2 cells
T3 construct: whole, on cells; not repeated for the recombinant cell line; also called Interleukin-13 receptor subunit alpha-2
T3 sequence (looked up): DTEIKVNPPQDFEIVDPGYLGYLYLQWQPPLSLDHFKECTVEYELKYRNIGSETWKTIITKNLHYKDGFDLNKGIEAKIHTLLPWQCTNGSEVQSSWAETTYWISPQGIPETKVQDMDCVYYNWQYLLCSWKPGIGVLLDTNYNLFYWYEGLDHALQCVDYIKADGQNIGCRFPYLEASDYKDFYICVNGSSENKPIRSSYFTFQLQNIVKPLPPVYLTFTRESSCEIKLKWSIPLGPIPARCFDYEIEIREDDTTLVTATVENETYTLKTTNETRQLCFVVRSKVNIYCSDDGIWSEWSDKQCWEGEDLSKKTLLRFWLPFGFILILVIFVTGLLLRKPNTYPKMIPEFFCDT
Method: as §2, §3

[4] = biological target: T3, IL13Rα2 on cells (recombinant …); assay: flow cytometry cellular binding, U251-MG cells, mean
Method: as §3
The mean values were calculated from the results obtained from two independent experiments with three technical replicates each (see Tab. 1).

[5] = biological target: T3, IL13Rα2 on cells (recombinant …); assay: cell-based or functional assay
[6] = biological target: T1, soluble recombinant IL13Rα2 ectodomain; assay: SPR, Biacore X100, two-state reaction model
Method: as §1

[7] = biological target: T3, IL13Rα2 on cells (recombinant …); assay: flow cytometry, two-step immunostaining, PC3 cells
[8] = biological target: T1, soluble recombinant IL13Rα2 ectodomain; assay: SPR, Biacore X100, two-state reaction model, Ka1
Method: as §1

[9] = biological target: T3, IL13Rα2 on cells (recombinant …); assay: cell-based or functional assay; remark: listed apart in the source
[10] = biological target: T3, IL13Rα2 on cells (recombinant …); assay: flow cytometry cellular binding assay on recombinant K562-IL13Rα2 cells, two-step immunostaining (anti-His-tag-PE), absolute MFI against TM concentration, four-parameter fit
Method: as §2
(§4) The data for the cellular binding of IL13-based TMs on the IL13Rα2-expressing AML cell line and U251-MG cells were fitted using a four-parameter model with a variable slope for sigmoidal curves.

[11] = biological target: T1, soluble recombinant IL13Rα2 ectodomain; assay: SPR, Biacore X100, 1:1 binding model
Method: Data obtained by surface plasmon resonance were fitted with a “1:1 binding” model using the Biacore X100 Evaluation Software (V2.0.1). The following parameters were calculated from this model: association rate (kₐ), dissociation rate (kd) and the dissociation constant at equilibrium (KD).

[12] = biological target: T2, IL13Rα1 on recombinant K562-IL13Rα1 …; assay: flow cytometry cellular binding assay on recombinant K562-IL13Rα1 cells, two-step immunostaining (anti-His-tag-PE), absolute MFI against TM concentration
Method: as §2

[13] = biological target: T3, IL13Rα2 on cells (recombinant …); assay: flow cytometry cellular binding assay on U251-MG cells, two-step immunostaining (anti-His-tag-PE), absolute MFI against TM concentration, four-parameter fit
Method: as §2, §4

| Binder | koff [1] | binding result [2] | EC50 [3] | EC50 [4] | EC50 (M), mean, lysis of U251-MG cells by UniCAR T cells [5] | Kd [6] | EC50 [7] | kon [8] | EC50 of lysis of K562-IL13Rα2 cells by switchable CAR T cells [9] | EC50 of lysis of PC3 cells by switchable CAR T cells [9] | EC50 [10] | Kd [11] | koff [11] | kon [11] | binding result [12] | EC50 [13] |
| --- | --- | --- | --- | --- | --- | --- | --- | --- | --- | --- | --- | --- | --- | --- | --- | --- |
| B1 | 0.0024 s⁻¹ | no binding (tested: 1x10^-6 M) | 1.68 nM | 2.5 nM | 2.8e-11 M | 1.39 nM | 1 nM | 871000 M⁻¹ s⁻¹ | 0.0068 nM | 0.048 nM | – | – | – | – | – | – |
| B2 | – | – | – | – | – | – | – | – | – | – | 26 nM | 30 nM | 0.00049 s⁻¹ | 26000 M⁻¹ s⁻¹ | – | – |
| B3 | – | – | – | – | – | – | – | – | – | – | 14.1 nM | 21 nM | 0.00073 s⁻¹ | 35000 M⁻¹ s⁻¹ | no binding (tested: about 5x10^-6 M) | 1.08 nM |
